In paper doi:10.1101/402990 (bioRxiv, 2018):

Target: T1, 6His-Tea3 (S. pombe, UniProt O14248 1-1125)
T1 sequence (looked up): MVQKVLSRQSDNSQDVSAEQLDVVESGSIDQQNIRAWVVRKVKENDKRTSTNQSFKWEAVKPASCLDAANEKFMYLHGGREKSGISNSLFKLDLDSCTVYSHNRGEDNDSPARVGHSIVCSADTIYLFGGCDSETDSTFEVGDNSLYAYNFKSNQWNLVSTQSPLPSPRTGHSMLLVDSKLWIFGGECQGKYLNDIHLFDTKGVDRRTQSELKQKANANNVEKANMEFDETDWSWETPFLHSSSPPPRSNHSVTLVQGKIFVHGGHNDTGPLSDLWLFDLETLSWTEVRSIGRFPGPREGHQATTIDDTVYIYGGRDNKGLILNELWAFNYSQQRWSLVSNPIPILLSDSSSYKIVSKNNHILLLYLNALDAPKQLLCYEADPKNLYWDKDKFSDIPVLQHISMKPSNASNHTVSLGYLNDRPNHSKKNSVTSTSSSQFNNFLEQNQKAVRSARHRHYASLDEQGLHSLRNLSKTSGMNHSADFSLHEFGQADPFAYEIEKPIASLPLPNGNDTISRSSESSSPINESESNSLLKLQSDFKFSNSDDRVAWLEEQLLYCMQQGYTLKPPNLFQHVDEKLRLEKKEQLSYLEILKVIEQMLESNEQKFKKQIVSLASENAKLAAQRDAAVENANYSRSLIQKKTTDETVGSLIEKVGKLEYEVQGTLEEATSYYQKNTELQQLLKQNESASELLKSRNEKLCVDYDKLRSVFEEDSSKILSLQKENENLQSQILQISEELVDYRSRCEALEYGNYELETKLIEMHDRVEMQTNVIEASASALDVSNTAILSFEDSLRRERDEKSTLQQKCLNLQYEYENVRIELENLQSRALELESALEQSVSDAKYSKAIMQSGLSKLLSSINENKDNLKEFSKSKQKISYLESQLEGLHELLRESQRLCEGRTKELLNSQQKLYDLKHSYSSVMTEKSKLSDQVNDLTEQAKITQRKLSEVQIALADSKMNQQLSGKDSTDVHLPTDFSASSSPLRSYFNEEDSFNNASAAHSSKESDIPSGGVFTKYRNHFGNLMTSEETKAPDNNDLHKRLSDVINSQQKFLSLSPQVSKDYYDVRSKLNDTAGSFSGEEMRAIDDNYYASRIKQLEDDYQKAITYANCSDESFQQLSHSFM
Experiment: pull-down

- binding result: binds
B1: GST-Shk1 (enzyme, S. pombe, UniProt P50527 1-658, looked up)
chain: MERGTLQPRKKAPNGYGITPIVAHKTGEPVRYEVEDDLRKLKPSRTAPKPPAINTNLAEDTFSGFPLSQSRTTVSRVSLGSRQHSSSSIRKLQTNVSDVRSYDERNQKKSAFENFVSSMSSFLTGGGSSPTSSYGSGSASPRKSTVISSPFDPKHVTHVGFNYDTGEFTGMPTEWQALLKVSGITKSEQVQHPQAVLDAMAFYSQSKKYLEEGAKPPFPRESTEKPLLSVSALSSSSHLQPTSATSSSSRLYPSRPAPTPPASSSSSPLLSSQTVKTTTSNASRQPSPLVSSKSTDNIIRSHSPVLLTPQTLSTSETKHIRPNNSTPYQRRAETSTKPKAVATPQKVEAPSAPRLQKRAPRQQSNDSAVLAKLQSICNPKNPTLLYRNFVKIGQGASGDVYSARQVGTNLSVAIKKMNINQQPKKEFIVNEILVMKSHHHKNIVNFIDTFFYKSELWMVMEYMRGGSLTEVVTNNTLSEGQIAAICKETLEGLQHLHENGIVHRDIKSDNILLSLQGDIKLTDFGFCAQIDSNMTKRTTMVGTPYWMAPEVVTRKEYGFKVDVWSLGIMAIEMVEGEPPYLNENPLRALYLIATIGTPKISRPELLSSVFHDFLSKSLTVNPKQRPSSGELLRHPFLKQAVPVSSLIPLIKSIHHSGK
